Laboratory results: the supplement of paper PMC9170038

Tested on: MS2 coat protein
Experiment: apparent KD of MS2 coat protein; designed switch direction (-1 OFF switch, 1 ON switch): 1; higher = weaker reporter binding
How it was run: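 Apparent KD, taken as the median over clusters for each design, was obtained by curve-fitting normalised cluster fluorescence. Designed RNA switches had been transcribed on Illumina chips by stalled E. coli RNA polymerase and titrated with SNAP-549-labelled MS2 coat protein, doubling from 0.7 or 1.5 nM to 3 µM.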

[1] = Eterna round: R95, input ligand: FMN 200 uM
[2] = Eterna round: R95, input ligand: microRNA oligo, concentration not stated
[3] = Eterna round: R95, input ligand: none
[4] = input ligand: microRNA oligo, concentration not stated

In the case of “AGUCCAGCCAGAGCUGGACAAAAGCAUGUACAUGAGGAUCACCCAUGUCAUGUACAAGCUUUUUGCUCGUCUUAAAA [Mat - hsa-mir-208a - Mod of JL - D2] (puzzle: Sensor for hsa-mir-208a)”, the “apparent KD of MS2 coat protein” value [1] is reported as 415 nM, the “apparent KD of MS2 coat protein” value [2] is reported as 13.7 nM and the “apparent KD of MS2 coat protein” value [3] is reported as 523 nM.
For “AGUCCAGCCAGAGCUGGACAAAAGCAUGUACAUGAGGAUCACCCAUGUUCAUGUACAAGCUUUUUGCUCGUCUUAAA [Mat - hsa-mir-208a - Mod of JL - 55] (puzzle: Sensor for hsa-mir-208a)”, the “apparent KD of MS2 coat protein” value [1] was 545 nM and the “apparent KD of MS2 coat protein” value [2] was 15 nM.
With “AGUCCAGCCUAAGCUGGACAAAAGCAUGUACAUGAGGAUCACCCAUGUUCAUGUACAAGCUUUUUGCUCGUCUUAAA [Mat - hsa-mir-208a - Mod of JL - 54] (puzzle: Sensor for hsa-mir-208a)” the “apparent KD of MS2 coat protein” value [1] was 544 nM, the “apparent KD of MS2 coat protein” value [2] was 15.1 nM and the “apparent KD of MS2 coat protein” value [3] was 447 nM.
In the case of “AGUCCAGCCUGAGCUGGACAAAAGCAUGUACAUGAGGAUCACCCAUGUCAUGUACAAGCUUUUUGCUCGUCUUAAAU [Mat - hsa-mir-208a - Mod of JL - D22] (puzzle: Sensor for hsa-mir-208a)”, the “apparent KD of MS2 coat protein” value [1] is reported as 585 nM, the “apparent KD of MS2 coat protein” value [2] is reported as 16.4 nM and the “apparent KD of MS2 coat protein” value [3] is reported as 584 nM.
With “AGUCCAGCCUGAGCUGGACAAAAGCAUGUACAUGAGGAUCACCCAUGUCAUGUACAAGCUUUUUGCUCGUCUUGAAA [Zipper 46 - 9] (puzzle: Sensor for hsa-mir-208a)” the “apparent KD of MS2 coat protein” value [1] was 737 nM, the “apparent KD of MS2 coat protein” value [2] was 16.8 nM and the “apparent KD of MS2 coat protein” value [3] was 807 nM.
In the case of “AGUCCAGCCUGAGCUGGACAAAAGCAUGUACAUGAGGAUCACCCAUGUCAUGUACAAGUUUUUUGCUCGUCUUAAUA [Zipper 49 - 12] (puzzle: Sensor for hsa-mir-208a)”, the “apparent KD of MS2 coat protein” value [1] is reported as 46.9 nM, the “apparent KD of MS2 coat protein” value [2] is reported as 11.1 nM and the “apparent KD of MS2 coat protein” value [3] is reported as 53.1 nM.
“AGUCCAGCCUGAGCUGGACAAAAGCAUGUACAUGAGGAUCACCCAUGUUAUGUACAAGCUUUUUGCUCGUCUUAAAA [Zipper 46 - 15] (puzzle: Sensor for hsa-mir-208a)” was tested, and the “apparent KD of MS2 coat protein” value [1] was 165 nM, the “apparent KD of MS2 coat protein” value [2] was 13 nM and the “apparent KD of MS2 coat protein” value [3] was 153 nM.
“AGUCCAGCCUGAGCUGGACAAAAGCAUGUACAUGAGGAUCACCCAUGUUCAUGUACAAGCUUUUUGCUCGUUUUAAA [Zipper 52 - 8] (puzzle: Sensor for hsa-mir-208a)” was tested, and the “apparent KD of MS2 coat protein” value [1] was 523 nM, the “apparent KD of MS2 coat protein” value [2] was 13.5 nM and the “apparent KD of MS2 coat protein” value [3] was 546 nM.
With “AGUCCAGCGAAAGCUGGACAAAAGCAUGUACAUGAGGAUCACCCAUGUUCAUGUACAAGUUUUUUGCUCGUUUUAAA [JL mod - D95 - 18] (puzzle: Sensor for hsa-mir-208a)” the “apparent KD of MS2 coat protein” value [1] was 37.8 nM, the “apparent KD of MS2 coat protein” value [2] was 10.3 nM and the “apparent KD of MS2 coat protein” value [3] was 45.8 nM.
With “AGUCCAGCGAAAGCUGGACAAAGGCAUGUACAUGAGGAUCACCCAUGUUCAUGUACAAGCUUUUUGCUCGUCUUAAA [JL mod - D95 - 3] (puzzle: Sensor for hsa-mir-208a)” the “apparent KD of MS2 coat protein” value [1] was 147 nM, the “apparent KD of MS2 coat protein” value [2] was 14 nM and the “apparent KD of MS2 coat protein” value [3] was 194 nM.
With “AUAAAACAUGAGGAUCACCCAUGUCAACAAAAUCGAGGAUAUGGACAGACUUCGGUCUGUCCAGAAGGCGAAUAAU [salish99_ss1_r3_100] (Eterna round: R96, puzzle: Same State 1)” the “apparent KD of MS2 coat protein” value (input ligand: FMN 200 uM) was 15.1 nM, the “apparent KD of MS2 coat protein” value [4] was 12.7 nM and the “apparent KD of MS2 coat protein” value (input ligand: none) was 17.4 nM.
In the case of “AUAAAACAUGAGGAUCACCCAUGUCAACAAAAUCGAGGAUAUGGACAGACUUCGGUCUGUCCAGAAGGCGAAUAAU [salish99_ss1_r3_100] (puzzle: Same State 1)”, the “apparent KD of MS2 coat protein” value [2] is reported as 13.8 nM.
“AUAAAACAUGAGGAUCACCCAUGUGGCGCUGACACAGGAUAUCAUGCGGAACUGGACGUAUGAGAAGGGUGAUGCG [Diateedza] (puzzle: Same State 1)” was tested, and the “apparent KD of MS2 coat protein” value [1] was 53 nM, the “apparent KD of MS2 coat protein” value [2] was 216 nM and the “apparent KD of MS2 coat protein” value [3] was 419 nM.
“AUAAAUAACACAGGAUAUCCGCACGAGUAGUACGGAGAAGGGUGAACGUCGGCUCUCGCCAACAUGAGGAUCACCCAUGUAAAA [Usesesana] (Eterna round: R96, puzzle: Same State NG 1)” was tested, and the “apparent KD of MS2 coat protein” value (input ligand: FMN 200 uM) was 1160 nM, the “apparent KD of MS2 coat protein” value [4] was 432 nM and the “apparent KD of MS2 coat protein” value (input ligand: none) was 734 nM.
For “AUAAGAAACACAGGAUAUACCGCACUUAACACGGUAGAAGGGUGGGACAUGAGGAUCACCCAUGUGGUCCGGGCGCCGGACCGC [Geenusrior] (Eterna round: R96, puzzle: Same State NG 1)”, the “apparent KD of MS2 coat protein” value (input ligand: FMN 200 uM) was 711 nM, the “apparent KD of MS2 coat protein” value [4] was 27.8 nM and the “apparent KD of MS2 coat protein” value (input ligand: none) was 329 nM.
For “AUAAGACACAUGAGGAUCACCCAUGUGGCCGUAGUCGGCUCACAGGAUAUCAAGCUACUAGUGCUUGAGAAGGGUGAGACAAGC [Raar Mod] (Eterna round: R96, puzzle: Same State NG 3)”, the “apparent KD of MS2 coat protein” value (input ligand: FMN 200 uM) was 57.3 nM, the “apparent KD of MS2 coat protein” value [4] was 190 nM and the “apparent KD of MS2 coat protein” value (input ligand: none) was 323 nM.
For “AUAAGUUCGAUGCUCGUCUCUCCGUACAAACAUGAGGAUCACCCAUGUGAUCGGGAAGUAGCCCGGUCAGUAUGGCC [Ordierti] (puzzle: Sensor for hsa-mir-208a)”, the “apparent KD of MS2 coat protein” value [1] was 35.1 nM, the “apparent KD of MS2 coat protein” value [2] was 24.4 nM and the “apparent KD of MS2 coat protein” value [3] was 38.5 nM.
With “AUAAGUUCGAUGCUCGUCUCUCCGUACAAACAUGAGGAUCACCCAUGUGAUUGAGCAGUAGCCCAAUCAGUAUGGCC [Tileus] (puzzle: Sensor for hsa-mir-208a)” the “apparent KD of MS2 coat protein” value [1] was 45.1 nM, the “apparent KD of MS2 coat protein” value [2] was 23.9 nM and the “apparent KD of MS2 coat protein” value [3] was 47.9 nM.
With “AUAAGUUCGAUGCUCGUCUCUCCGUACAAACAUGAGGAUCACCCAUGUGAUUGGGCAAUAGCCCAAUCAGUAUGACC [Gemaa] (puzzle: Sensor for hsa-mir-208a)” the “apparent KD of MS2 coat protein” value [1] was 38.1 nM, the “apparent KD of MS2 coat protein” value [2] was 26 nM and the “apparent KD of MS2 coat protein” value [3] was 41.5 nM.
For “AUAGUUGCCGAAGGAUAUGAUGAGGAUCACCCAUCAGAAGGUUGGCUAUUGGGUGGACAUGAGGAUCACCCAUGUCCUUUGGUA (Eterna round: R96, puzzle: Same State NG 1)”, the “apparent KD of MS2 coat protein” value (input ligand: FMN 200 uM) was 95.1 nM, the “apparent KD of MS2 coat protein” value [4] was 119 nM and the “apparent KD of MS2 coat protein” value (input ligand: none) was 147 nM.
With “AUAUGAGGAGCAGGAUAUGCGGAGAAGAAAGAAGCAGAAGGGCUCAUGGGACGACAUGAGGAUCACCCAUGUGCUCCGCGAUGA [AK SSNG1-V2-4] (Eterna round: R96, puzzle: Same State NG 1)” the “apparent KD of MS2 coat protein” value (input ligand: FMN 200 uM) was 69.9 nM, the “apparent KD of MS2 coat protein” value [4] was 29.5 nM and the “apparent KD of MS2 coat protein” value (input ligand: none) was 328 nM.
For “AUAUUCUUCCGCGACACCCACAUGAGGAUCACCCAUGUUGAACAGGAUAUGUAGUUCAUCUGAACACAGAAGGGUUAAAGGAAG [Eternabot solution 28] (Eterna round: R96, puzzle: Same State NG 3)”, the “apparent KD of MS2 coat protein” value (input ligand: FMN 200 uM) was 16.5 nM, the “apparent KD of MS2 coat protein” value [4] was 16.5 nM and the “apparent KD of MS2 coat protein” value (input ligand: none) was 20 nM.
For “AUCUCUGUGCCGCAGGAUAUACCAACGGCUACAUGAGGAUCACCCAUGUCAUACCGUCGAAAAUGGUAGAAGGGUGUGCACGAGC [Leesmala] (puzzle: Same State 2)”, the “apparent KD of MS2 coat protein” value [1] was 16.4 nM, the “apparent KD of MS2 coat protein” value [2] was 45.5 nM and the “apparent KD of MS2 coat protein” value [3] was 61.3 nM.
With “AUGCCAAAAGGAGGAUAUGGAGCCUUAUUGGCUCCAGAAGGCUUGACAUGAGGAUCACCCAUGUGGCAGUGGUCUAAUGACCAC [Eli NG1ss - 43] (Eterna round: R96, puzzle: Same State NG 1)” the “apparent KD of MS2 coat protein” value [4] was 13.7 nM.
In the case of “AUGCCAAAGCGAGGAUAUGGAGCCUUAUUGGCUCCAGAAGGUGUGACAUGAGGAUCACCCAUGUGGCAGUGGUCUAAUGACCAC [Eli NG1ss - 41] (Eterna round: R96, puzzle: Same State NG 1)”, the “apparent KD of MS2 coat protein” value (input ligand: FMN 200 uM) is reported as 63.3 nM, the “apparent KD of MS2 coat protein” value [4] is reported as 64.6 nM and the “apparent KD of MS2 coat protein” value (input ligand: none) is reported as 86.7 nM.
“AUGGUGCAGGUACAGGAUAUGUUGCUCGUAACAUGAGGAUCACCCAUGUACCUAUGAGAUUAAAUGCAGAAGGGUGCACACCACG [Quorra] (Eterna round: R96, puzzle: Same State 2)” was tested, and the “apparent KD of MS2 coat protein” value (input ligand: FMN 200 uM) was 62.8 nM, the “apparent KD of MS2 coat protein” value [4] was 406 nM and the “apparent KD of MS2 coat protein” value (input ligand: none) was 1260 nM.
With “AUUAAACAUGAGGAUCACCCAUGUCAACAAAGUCGAGGAUAUGGGCAAAUAAAAUAAGUACCAGAAGGCGAAUAAU [salish99_ss1_r3_066] (Eterna round: R96, puzzle: Same State 1)” the “apparent KD of MS2 coat protein” value (input ligand: FMN 200 uM) was 21.4 nM, the “apparent KD of MS2 coat protein” value [4] was 66.1 nM and the “apparent KD of MS2 coat protein” value (input ligand: none) was 103 nM.
“AUUAAACAUGAGGAUCACCCAUGUCAACAAAGUCGAGGAUAUGGGCAAAUAAAAUAAGUACCAGAAGGCGAAUAAU [salish99_ss1_r3_066] (puzzle: Same State 1)” was tested, and the “apparent KD of MS2 coat protein” value [2] was 149 nM.
For “AUUAAACAUGAGGAUCACCCAUGUCAACAAAGUCGAGGAUAUGGGCAAAUAAAAUUAGAACCAGAAGGCGAAUAAU [salish99_ss1_r3_063] (puzzle: Same State 1)”, the “apparent KD of MS2 coat protein” value [1] was 29.2 nM, the “apparent KD of MS2 coat protein” value [2] was 167 nM and the “apparent KD of MS2 coat protein” value [3] was 229 nM.
